# Non-standard residues stand in square brackets, D forms with d. No end group written: not given here. pY = N[C@@H](Cc1ccc(OP(=O)(O)O)cc1)C(=O)O
# What was measured:
# Talin F3 W359A [1] = target: T1, Talin F3 W359A (mouse, UniProt P26039 309-405, limits assumed); assay: ITC, 1 mM peptide injected into 50 µM talin F3 W359A, 23 C, 200 mM Tris, 300 mM NaCl, pH 7.5
# T1 construct: domain: F3 sub-domain; As m1, with the mutation; also called talin (W359A) mutant
# Method: (§1) Peptide concentrations were typically at 150 to 300 μM while protein concentrations ranged from 25 to 50 μM. For the W359A mutant, the protein concentration was 50 μM and the peptide concentration was 1 mM. Prior to ITC titrations, the peptides and proteins were in buffer consisting of 200 mM Tris, 300 mM NaCl, pH 7.5. All experiments were conducted at 23 degrees Celsius. […] The bottom panel is the binding curve, calculated using the software program Origin.
# (§2) Isothermal titration calorimetry (ITC) was performed on a VP-ITC calorimeter (Microcal, Northampton, Mass.). Aliquots (8 μL) of wildtype ([…]p[…]) (SEQ ID NO: 2) or mutant chimeric peptide were injected into the cell containing wildtype or mutant talin F3 domain. Peptide concentrations were typically 150 to 300 μM while protein concentrations ranged from 25 to 50 μM. For the W359A mutant, the protein concentration was 50 μM and the peptide concentration was 1 mM. Prior to ITC titrations, the peptides and proteins were in 200 mM Tris, 300 mM NaCl, pH 7.5. In each experiment 37 injections were made. The experiments were performed at 23° C. All titrations were performed at least twice and with different protein preparations. Experimental data were analyzed using Microcal Origin software.
# Talin F3 L325R = target: T2, Talin F3 L325R (mouse, UniProt P26039 309-405, limits assumed); assay: ITC, peptide injected into talin F3 L325R, 23 C, 200 mM Tris, 300 mM NaCl, pH 7.5
# T2 construct: domain: F3 sub-domain; As m1, with the mutation
# T2 sequence (P26039 309-405 L325R limits assumed): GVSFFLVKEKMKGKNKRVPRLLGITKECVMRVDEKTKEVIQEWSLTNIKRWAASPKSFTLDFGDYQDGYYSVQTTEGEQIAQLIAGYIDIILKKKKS
# Method: as §1, §2
# [2] = target: T3, Talin F3 sub-domain, wild type (mouse, UniProt P26039 309-405, limits assumed); assay: ITC, peptide injected into talin F3, 23 C, 200 mM Tris, 300 mM NaCl, pH 7.5
# T3 construct: domain: F3 sub-domain; U-15N labelled for NMR; also called Talin F3 wt; talin F3 domain
# T3 sequence (P26039 309-405 limits assumed): as the sequence (P26039 309-405 L325R limits assumed) above, with R17L counted along it
# Method: as §1, §2
# Talin F3 Q381V = target: T4, Talin F3 Q381V (mouse, UniProt P26039 309-405, limits assumed); assay: ITC, peptide injected into talin F3 Q381V, 23 C, 200 mM Tris, 300 mM NaCl, pH 7.5
# T4 construct: domain: F3 sub-domain; As m1, with the mutation
# T4 sequence (P26039 309-405 Q381V limits assumed): as the sequence (P26039 309-405 L325R limits assumed) above, with R17L, Q73V counted along it
# Method: as §1, §2
# Talin F3 W359A [3] = target: T1, Talin F3 W359A; assay: ITC
# Method: as §1, §2
# T1 sequence (P26039 309-405 W359A limits assumed): as the sequence (P26039 309-405 L325R limits assumed) above, with R17L, W51A counted along it
Kd (Talin F3 W359A [1]),Kd (Talin F3 L325R),Kd [2],Kd (Talin F3 Q381V),fold reduction of affinity against wild-type talin F3 (Talin F3 W359A [3]),Binder
106000 nM,212 nM,140 nM,135 nM,~1000 fold,"KKLLITIHDRKEFAKFEEERARAKWV[pY]SPLHYSAR (Integrin β3 tail residues N-terminal of W739, PIPKIγ residues C-terminal of it (numbered 740-746 in the deposited structure); also called β3 chimera; β3-integrin/PIPKIγ peptide) [β3/PIPKIγ chimeric peptide, wild type]"
–,–,118 nM,–,–,KKLLITIHDRKEAAKFEEERARAKWV[pY]SPLHYSAR (also called β3 chimera F727A; β3-F727A) [β3/PIPKIγ chimeric peptide F727A]
–,–,105 nM,–,–,KKLLITIHDRKEFAKAEEERARAKWV[pY]SPLHYSAR (also called β3 chimera F730A; β3-F730A) [β3/PIPKIγ chimeric peptide F730A]
